Assay results from the supplement of paper PMC10567573.

B1: CDC14A (parent)
chain: GPHPKSKIENGYPLHAPEAYFPYF

Variants of: B1
Assay: protein stability index of a GFP-peptide fusion (GPS, HEK-293T) (PSI 1-6); higher = more stable
Details: c terminus: a fixed tail appended
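Also: lentivirally expressed fusions sorted by FACS into six bins by GFP to DsRed ratio, PSI derived from sequencing read proportions per bin multiplied by bin number.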

Row | Variant | protein stability index
1 | GPHPKSKHENGYPLHAPEAYFPYF [I8H] | 2.37
2 | GPHPKSKSENGYPLHAPEAYFPYF [I8S] | 2.29
3 | GPHPKSKGENGYPLHAPEAYFPYF [I8G] | 2.28
4 | GPHPKSKVENGYPLHAPEAYFPYF [I8V] | 2.48
5 | GPHPKSKRENGYPLHAPEAYFPYF [I8R] | 2.75
6 | GPHPKSKNENGYPLHAPEAYFPYF [I8N] | 2.98
7 | GPHPKSKTENGYPLHAPEAYFPYF [I8T] | 2.48
8 | GPHPKSKYENGYPLHAPEAYFPYF [I8Y] | 1.88
9 | GPFPKSKIENGYPLHAPEAYFPYF [H3F] | 2.02
10 | GPDPKSKIENGYPLHAPEAYFPYF [H3D] | 2.01
11 | GPQPKSKIENGYPLHAPEAYFPYF [H3Q] | 2.7
12 | GPYPKSKIENGYPLHAPEAYFPYF [H3Y] | 1.9
13 | GPRPKSKIENGYPLHAPEAYFPYF [H3R] | 2.19
14 | GPSPKSKIENGYPLHAPEAYFPYF [H3S] | 2.55
15 | GPWPKSKIENGYPLHAPEAYFPYF [H3W] | 1.66
16 | GPIPKSKIENGYPLHAPEAYFPYF [H3I] | 2.48
17 | GPHPKSKIENGYPYHAPEAYFPYF [L14Y] | 1.89
18 | GPHPKSKIENGYPIHAPEAYFPYF [L14I] | 2.27
19 | GPHPKSKIENGYPWHAPEAYFPYF [L14W] | 2.46
20 | GPHPKSKIENGYPSHAPEAYFPYF [L14S] | 2.79
21 | GPHPKSKIENGYPFHAPEAYFPYF [L14F] | 2.02
22 | GPHPKSKIENGYPLHAPEAYQPYF [F21Q] | 2.85
23 | GPHPKSKIENGYPLHAPEAYAPYF [F21A] | 3
24 | GPHPKSKIENGYPLHAPEAYCPYF [F21C] | 2.92

Row | Variant | protein stability index
25 | GPHPKSKIENGYPLHAPEAYLPYF [F21L] | 2.17
26 | GPHPKSKIENGYPLHAPEAYVPYF [F21V] | 2.9
27 | GPHPKSKIENGYPLHAPEAYHPYF [F21H] | 2.47
28 | GPHPKSKIENGYPLHAPEAYWPYF [F21W] | 2.71
29 | GPHPKSKIENGYPLHAPEAYYPYF [F21Y] | 2.44
30 | GPHPKSKIENGYPLHAPEAYIPYF [F21I] | 2.17
31 | GPHPKSKIENGYPLHAPEAYKPYF [F21K] | 3.05
32 | GPHPKSKIENGYPLIAPEAYFPYF [H15I] | 1.87
33 | GPHPKSKIENGYPLCAPEAYFPYF [H15C] | 2.23
34 | GPHPKSKIENGYPLVAPEAYFPYF [H15V] | 2.53
35 | GPHPKSKIENGYPLFAPEAYFPYF [H15F] | 1.7
36 | GPHPKSKIENGYPLKAPEAYFPYF [H15K] | 2.7
37 | GPHPKSKIENGYPLDAPEAYFPYF [H15D] | 2.63
38 | GPHPKSKIENGYPLMAPEAYFPYF [H15M] | 1.96
39 | GPHPKSKIENGYPLNAPEAYFPYF [H15N] | 2.37
40 | GPHPFSKIENGYPLHAPEAYFPYF [K5F] | 1.29
41 | GPHPDSKIENGYPLHAPEAYFPYF [K5D] | 2.08
42 | GPHPTSKIENGYPLHAPEAYFPYF [K5T] | 2.13
43 | GPHPGSKIENGYPLHAPEAYFPYF [K5G] | 1.99
44 | GPHPISKIENGYPLHAPEAYFPYF [K5I] | 2.06
45 | GPHPMSKIENGYPLHAPEAYFPYF [K5M] | 1.87
46 | GPHPCSKIENGYPLHAPEAYFPYF [K5C] | 2.23
47 | GPHPKSKIENGYPLHAPEAYFPLF [Y23L] | 1.95
48 | GPHPKSKIENGYPLHAPEAYFPKF [Y23K] | 3.13

Row | Variant | protein stability index
49 | GPHPKSKIENGYPLHAPEAYFPAF [Y23A] | 2.93
50 | GPHPKSKIENGYPLHAPEAYFPSF [Y23S] | 3.11
51 | GPHPKSKIENGYPLHAPEAYFPWF [Y23W] | 1.91
52 | GPHPKSKIENGYPLHAPEAYFPNF [Y23N] | 3.28
53 | GPHPKSKIENGYPLHAPEAYFPHF [Y23H] | 2.97
54 | GPHPKSKIENGYPLHAPEAYFPEF [Y23E] | 3.4
55 | GPHPKSKIENGYPLHAPEAYFPGF [Y23G] | 3.21
56 | GPHPKSKIENGYPLHAPEAYFPDF [Y23D] | 3.92
57 | GPHPKSKIENGYPLHAPEAYFPFF [Y23F] | 2.23
58 | GPHIKSKIENGYPLHAPEAYFPYF [P4I] | 1.91
59 | GPHGKSKIENGYPLHAPEAYFPYF [P4G] | 2.22
60 | GPHEKSKIENGYPLHAPEAYFPYF [P4E] | 2.11
61 | GPHQKSKIENGYPLHAPEAYFPYF [P4Q] | 2.23
62 | GPHDKSKIENGYPLHAPEAYFPYF [P4D] | 2.12
63 | GPHVKSKIENGYPLHAPEAYFPYF [P4V] | 2.84
64 | GPHRKSKIENGYPLHAPEAYFPYF [P4R] | 2.8
65 | GPHPKSKIENGYPLHAPEDYFPYF [A19D] | 2.2
66 | GPHPKSKIENGYPLHAPEGYFPYF [A19G] | 2.22
67 | GPHPKSKIENGYPLHAPESYFPYF [A19S] | 2.35
68 | GPHPKSKIENGYPLHAPEKYFPYF [A19K] | 2.51
69 | GPHPKSKIENGYPLHAPETYFPYF [A19T] | 2.39
70 | GPHPKSKIENGYPLHAPEHYFPYF [A19H] | 2.22
71 | GPHPKSKIENGYPLHAPEFYFPYF [A19F] | 2.39
72 | GPHPKSKIENGYPLHAPEYYFPYF [A19Y] | 2.35

Row | Variant | protein stability index
73 | GPHPKSKIENGYPLHAPENYFPYF [A19N] | 2.71
74 | GPHPKSKIENGYPLHAPEVYFPYF [A19V] | 1.89
75 | GPHPKSKIENGYPLHAPELYFPYF [A19L] | 1.98
76 | GPHPKSKIENGYPLHYPEAYFPYF [A16Y] | 2.29
77 | GPHPKSKIENGYPLHWPEAYFPYF [A16W] | 1.99
78 | GPHPKSKIENGYPLHRPEAYFPYF [A16R] | 2.35
79 | GPHPKSKIENGYPLHMPEAYFPYF [A16M] | 2.01
80 | GPHPKSKIENGYPLHLPEAYFPYF [A16L] | 1.95
81 | GPHPKSKIENGYPLHQPEAYFPYF [A16Q] | 2.49
82 | GPHPKSKIENGYPLHCPEAYFPYF [A16C] | 2.84
83 | GPHPKSKIENGVPLHAPEAYFPYF [Y12V] | 2.19
84 | GPHPKSKIENGGPLHAPEAYFPYF [Y12G] | 2.67
85 | GPHPKSKIENGSPLHAPEAYFPYF [Y12S] | 2.73
86 | GPHPKSKIENGQPLHAPEAYFPYF [Y12Q] | 2.7
87 | GPHPKSKIENGCPLHAPEAYFPYF [Y12C] | 2.42
88 | GPHPKSKIENGNPLHAPEAYFPYF [Y12N] | 3.03
89 | GPHPKSKIENGKPLHAPEAYFPYF [Y12K] | 2.69
90 | GPHPKSKIENGHPLHAPEAYFPYF [Y12H] | 2.99
91 | GPHPKSKIENGTPLHAPEAYFPYF [Y12T] | 3.07
92 | GHHPKSKIENGYPLHAPEAYFPYF [P2H] | 2.46
93 | GQHPKSKIENGYPLHAPEAYFPYF [P2Q] | 2.14
94 | GFHPKSKIENGYPLHAPEAYFPYF [P2F] | 2.8
